# Data taken from US12459996B2, “Methods for treating alcohol-induced brain injury and reducing alcohol addiction” (The Regents of the University of California, priority 2017, dated 2025).
# Tested on: cultured GFAP+F4/80- astrocytes
# Experiment: IL-1β stimulation of cultured astrocytes, gene expression microarray
# Format: cell-based, mouse
# Details: 5 ng/ml, 24 h
# Protocol: Whole mouse genome gene expression via Microarray: Primary astrocytes (5×10^5) were stimulated with IL-1β (5 ng/ml), TGF-β1(5 ng/ml) or vehicle for 24 h, harvested, and mRNA was purified using RNAeasy™ columns (Qiagen); and 160 ng of purified RNA per sample was labeled using the LRILAK PLUS™, 2-color, low RNA input Linear Amplification kit and hybridized to a Whole Mouse Genome Microarray 4×44 K™ 60mer slide according to the manufacturer's instructions (Agilent, Santa Clara, CA). Slides were scanned using the Agilent GZ505B Scanner™ and analyzed using the Gene Spring Software™ (Agilent).
# To determine the effect of microglia-derived cytokines on astrogliosis 21,22, cultured GFAP^+F4/80-astrocytes were in vitro stimulated with TGF-β1 or IL-β. […] In addition, cultured astrocytes expressed glutamate receptors (mGluRs) that mediate neuron-astrocyte signaling (FIG. 14D). Under pathological conditions, neurodegeneration triggers expansion of reactive astrocytes, upregulation of TGF-β 1, and mGuRs, which together generate neuroprotective effects^24.
# FIG. 14A: Primary GFAP^+F4/80^− astrocytes and GFAP^−F4/80^+ microglial cells were isolated from Wt mice, and phenotyped by immunocytochemistry. Cell purity was calculated as percent of total cells (representative images ×20 objective). […] The data are average of (triplicates). FIG. 14B-C: Cultured astrocytes (5×10^5 cells per ml) were stimulated with TGF-β1 (5 ng/ml), or IL-1β (5 ng/ml), or PBS, and subjected to the customized gene expression microarray (Agilent. FIG. 14B: GO enrichment profile for IL-1β- and FIG. 14C: TGF-β- (vs PBS-) stimulated astrocytes is shown.
substance,measurement,value
IL-β1: IL-1β cytokine (5 ng/ml) used to stimulate cultured astrocytes,"CCL2, fold induction vs vehicle",200 fold
same,"CCL5, fold induction vs vehicle",13 fold
same,"CCL7, fold induction vs vehicle",400 fold
same,"Cxcl1, fold induction vs vehicle",14 fold
same,"IL-6, fold induction vs vehicle",20 fold
